Source: patent US20210388087A1 (Chugai, published 2021)
Numbering of substitutions follows the chain as printed. Numbers in names are those of the source.

B1: dBBDu183H A100R / dBBDu072L (antibody, name in Kabat numbering, V domains shown)
VH: QVQLVESGGGLVQPGRSLRLSCAASGFTFSNAWMHWVRQAPGKGLEWVAQIKDKGNAYAAYYAPSVKGRFTISRDDSKNSIYLQMNSLKTEDTAVYYCHYVHYASRSTVLPAFGVDAWGQGTTVTVSS
VL: DIVMTQSPLSLPVTPGEPASISCQASQELVHMNRNTYLHWYQQKPGQAPRLLIYKVSNRFPGVPDRFSGSGSGTDFTLKISRVEAEDVGVYYCAQGTSVPFTFGQGTKLEIK
notes: as m1, one VH change
B2: dBBDu183H K64N / dBBDu072L (antibody, name in Kabat numbering, V domains shown)
VH: B1 VH with K67N, R106A
VL: B1 VL
notes: as m1, one VH change
B3: dBBDu183H K64F / dBBDu072L (antibody, name in Kabat numbering, V domains shown)
VH: B1 VH with K67F, R106A
VL: B1 VL
notes: as m1, one VH change
B4: dBBDu183H A100fS / dBBDu072L (antibody, name in Kabat numbering, V domains shown)
VH: B1 VH with R106A, A112S
VL: B1 VL
notes: as m1, one VH change
B5: dBBDu183H G65Q / dBBDu072L (antibody, name in Kabat numbering, V domains shown)
VH: B1 VH with G68Q, R106A
VL: B1 VL
notes: as m1, one VH change
B6: dBBDu183H F100gT / dBBDu072L (antibody, name in Kabat numbering, V domains shown)
VH: B1 VH with R106A, F113T
VL: B1 VL
notes: as m1, one VH change
B7: dBBDu183H G65W / dBBDu072L (antibody, name in Kabat numbering, V domains shown)
VH: B1 VH with G68W, R106A
VL: B1 VL
notes: as m1, one VH change
B8: dBBDu183H G65R / dBBDu072L (antibody, name in Kabat numbering, V domains shown)
VH: B1 VH with G68R, R106A
VL: B1 VL
notes: as m1, one VH change
B9: dBBDu183H K64D / dBBDu072L (antibody, name in Kabat numbering, V domains shown)
VH: B1 VH with K67D, R106A
VL: B1 VL
notes: as m1, one VH change
B10: dBBDu183H D101S / dBBDu072L (antibody, name in Kabat numbering, V domains shown)
VH: B1 VH with R106A, D116S
VL: B1 VL
notes: as m1, one VH change
B11: dBBDu183H G65V / dBBDu072L (antibody, name in Kabat numbering, V domains shown)
VH: B1 VH with G68V, R106A
VL: B1 VL
notes: as m1, one VH change
B12: dBBDu183H F100gV / dBBDu072L (antibody, name in Kabat numbering, V domains shown)
VH: B1 VH with R106A, F113V
VL: B1 VL
notes: as m1, one VH change
B13: dBBDu183H K64Q / dBBDu072L (antibody, name in Kabat numbering, V domains shown)
VH: B1 VH with K67Q, R106A
VL: B1 VL
notes: as m1, one VH change
B14: dBBDu183H F100gH / dBBDu072L (antibody, name in Kabat numbering, V domains shown)
VH: B1 VH with R106A, F113H
VL: B1 VL
notes: as m1, one VH change
B15: dBBDu183H G65N / dBBDu072L (antibody, name in Kabat numbering, V domains shown)
VH: B1 VH with G68N, R106A
VL: B1 VL
notes: as m1, one VH change
B16: dBBDu183H H93N / dBBDu072L (antibody, name in Kabat numbering, V domains shown)
VH: B1 VH with H99N, R106A
VL: B1 VL
notes: as m1, one VH change
B17: dBBDu183H G65F / dBBDu072L (antibody, name in Kabat numbering, V domains shown)
VH: B1 VH with G68F, R106A
VL: B1 VL
notes: as m1, one VH change
B18: dBBDu183H G65Y / dBBDu072L (antibody, name in Kabat numbering, V domains shown)
VH: B1 VH with G68Y, R106A
VL: B1 VL
notes: as m1, one VH change
B19: dBBDu183H K64H / dBBDu072L (antibody, name in Kabat numbering, V domains shown)
VH: B1 VH with K67H, R106A
VL: B1 VL
notes: as m1, one VH change
B20: dBBDu183H F100gE / dBBDu072L (antibody, name in Kabat numbering, V domains shown)
VH: B1 VH with R106A, F113E
VL: B1 VL
notes: as m1, one VH change
B21: dBBDu183H H96W / dBBDu072L (antibody, name in Kabat numbering, V domains shown)
VH: B1 VH with H102W, R106A
VL: B1 VL
notes: as m1, one VH change
B22: dBBDu183H F100gW / dBBDu072L (antibody, name in Kabat numbering, V domains shown)
VH: B1 VH with R106A, F113W
VL: B1 VL
notes: as m1, one VH change
B23: dBBDu183H A100fG / dBBDu072L (antibody, name in Kabat numbering, V domains shown)
VH: B1 VH with R106A, A112G
VL: B1 VL
notes: as m1, one VH change
B24: dBBDu183H F100gY / dBBDu072L (antibody, name in Kabat numbering, V domains shown)
VH: B1 VH with R106A, F113Y
VL: B1 VL
notes: as m1, one VH change
B25: dBBDu183H H96F / dBBDu072L (antibody, name in Kabat numbering, V domains shown)
VH: B1 VH with H102F, R106A
VL: B1 VL
notes: as m1, one VH change
B26: dBBDu183H K64G / dBBDu072L (antibody, name in Kabat numbering, V domains shown)
VH: B1 VH with K67G, R106A
VL: B1 VL
notes: as m1, one VH change
B27: dBBDu183H A100fH / dBBDu072L (antibody, name in Kabat numbering, V domains shown)
VH: B1 VH with R106A, A112H
VL: B1 VL
notes: as m1, one VH change
B28: dBBDu183H F100gS / dBBDu072L (antibody, name in Kabat numbering, V domains shown)
VH: B1 VH with R106A, F113S
VL: B1 VL
notes: as m1, one VH change
B29: dBBDu183H K64R / dBBDu072L (antibody, name in Kabat numbering, V domains shown)
VH: B1 VH with K67R, R106A
VL: B1 VL
notes: as m1, one VH change
B30: dBBDu183H G65T / dBBDu072L (antibody, name in Kabat numbering, V domains shown)
VH: B1 VH with G68T, R106A
VL: B1 VL
notes: as m1, one VH change
B31: dBBDu183H F100gQ / dBBDu072L (antibody, name in Kabat numbering, V domains shown)
VH: B1 VH with R106A, F113Q
VL: B1 VL
notes: as m1, one VH change
B32: dBBDu183H G65D / dBBDu072L (antibody, name in Kabat numbering, V domains shown)
VH: B1 VH with G68D, R106A
VL: B1 VL
notes: as m1, one VH change
B33: dBBDu183H G65S / dBBDu072L (antibody, name in Kabat numbering, V domains shown)
VH: B1 VH with G68S, R106A
VL: B1 VL
notes: as m1, one VH change
B34: dBBDu183H G65E / dBBDu072L (antibody, name in Kabat numbering, V domains shown)
VH: B1 VH with G68E, R106A
VL: B1 VL
notes: as m1, one VH change
B35: dBBDu183H H96T / dBBDu072L (antibody, name in Kabat numbering, V domains shown)
VH: B1 VH with H102T, R106A
VL: B1 VL
notes: as m1, one VH change
B36: dBBDu183H D101Q / dBBDu072L (antibody, name in Kabat numbering, V domains shown)
VH: B1 VH with R106A, D116Q
VL: B1 VL
notes: as m1, one VH change
B37: dBBDu183H D101N / dBBDu072L (antibody, name in Kabat numbering, V domains shown)
VH: B1 VH with R106A, D116N
VL: B1 VL
notes: as m1, one VH change
B38: dBBDu183H G65H / dBBDu072L (antibody, name in Kabat numbering, V domains shown)
VH: B1 VH with G68H, R106A
VL: B1 VL
notes: as m1, one VH change
B39: dBBDu183H G65K / dBBDu072L (antibody, name in Kabat numbering, V domains shown)
VH: B1 VH with G68K, R106A
VL: B1 VL
notes: as m1, one VH change
B40: dBBDu183H A102S / dBBDu072L (antibody, name in Kabat numbering, V domains shown)
VH: B1 VH with R106A, A117S
VL: B1 VL
notes: as m1, one VH change
B41: dBBDu183H D101E / dBBDu072L (antibody, name in Kabat numbering, V domains shown)
VH: B1 VH with R106A, D116E
VL: B1 VL
notes: as m1, one VH change
B42: dBBDu183H A102G / dBBDu072L (antibody, name in Kabat numbering, V domains shown)
VH: B1 VH with R106A, A117G
VL: B1 VL
notes: as m1, one VH change
B43: dBBDu183H H96V / dBBDu072L (antibody, name in Kabat numbering, V domains shown)
VH: B1 VH with H102V, R106A
VL: B1 VL
notes: as m1, one VH change
B44: dBBDu183H K64S / dBBDu072L (antibody, name in Kabat numbering, V domains shown)
VH: B1 VH with K67S, R106A
VL: B1 VL
notes: as m1, one VH change
B45: dBBDu183H H96Y / dBBDu072L (antibody, name in Kabat numbering, V domains shown)
VH: B1 VH with H102Y, R106A
VL: B1 VL
notes: as m1, one VH change
B46: dBBDu183H D101T / dBBDu072L (antibody, name in Kabat numbering, V domains shown)
VH: B1 VH with R106A, D116T
VL: B1 VL
notes: as m1, one VH change
B47: dBBDu183H K64T / dBBDu072L (antibody, name in Kabat numbering, V domains shown)
VH: B1 VH with K67T, R106A
VL: B1 VL
notes: as m1, one VH change

Target: T1, Human CD137 ECD (human)
T1 construct: also called 4-1BB
T1 sequence (chain, as listed by the source limits assumed): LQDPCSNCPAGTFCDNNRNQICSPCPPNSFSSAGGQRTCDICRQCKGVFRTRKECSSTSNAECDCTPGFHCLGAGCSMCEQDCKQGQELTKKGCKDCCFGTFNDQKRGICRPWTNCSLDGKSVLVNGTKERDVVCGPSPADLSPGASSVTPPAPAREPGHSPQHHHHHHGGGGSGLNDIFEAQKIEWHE
Test: SPR, vs parent H183/L072

Binder	fold change of affinity [fold]
B1	0.5
B2	1
B3	1.1
B4	0.7
B5	1.2
B6	0.7
B7	1.3
B8	1.1
B9	1.1
B10	3.3
B11	1.2
B12	0.5
B13	1.1
B14	0.7
B15	1.2
B16	0.1
B17	1.3
B18	1.3
B19	1.1
B20	1.9
B21	1.6
B22	0.6
B23	0.6
B24	1

Binder	fold change of affinity [fold]
B25	1.4
B26	1.1
B27	1
B28	0.4
B29	1.1
B30	1.3
B31	0.8
B32	1.3
B33	1.2
B34	1.3
B35	0.5
B36	1.7
B37	0.7
B38	1.2
B39	1.1
B40	0.9
B41	2.2
B42	1.6
B43	0.8
B44	1.2
B45	3.3
B46	3.3
B47	1.1
